Results on two molecules are retold here after US20220235136A1 (YALE UNIVERSITY, published 2022).

In experiment [1] the target is T1, recombinant human CD93 protein (R&D Systems) (human, UniProt Q9NPY3 24-580).
T1 construct: Bought soluble protein
T1 sequence: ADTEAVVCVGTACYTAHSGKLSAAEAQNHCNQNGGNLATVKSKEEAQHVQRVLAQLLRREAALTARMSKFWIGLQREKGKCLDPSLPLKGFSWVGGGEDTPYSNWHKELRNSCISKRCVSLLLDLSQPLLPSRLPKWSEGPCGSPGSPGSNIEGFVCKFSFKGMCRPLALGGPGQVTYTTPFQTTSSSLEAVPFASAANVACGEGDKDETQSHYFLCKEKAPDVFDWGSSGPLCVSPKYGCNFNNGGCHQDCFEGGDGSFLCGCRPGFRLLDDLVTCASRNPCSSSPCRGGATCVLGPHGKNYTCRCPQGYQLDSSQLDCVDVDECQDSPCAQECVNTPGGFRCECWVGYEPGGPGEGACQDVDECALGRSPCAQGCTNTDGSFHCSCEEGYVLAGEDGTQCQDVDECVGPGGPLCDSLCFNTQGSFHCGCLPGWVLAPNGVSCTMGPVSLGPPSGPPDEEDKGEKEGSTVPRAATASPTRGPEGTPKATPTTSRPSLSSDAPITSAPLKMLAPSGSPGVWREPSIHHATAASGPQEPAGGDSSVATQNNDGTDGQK
Nature of the experiment: microscale thermophoresis: 10 nM labelled IGFBP7, CD93 titrated from 5.9 uM to 180 pM (FIG. 4E). Background: MST reads how a fluorescent partner responds to local heating, with and without ligand.

For experiment [2], the target named is T2, mouse CD93 on transfected HEK293T cells (mouse, UniProt O89103 23-644).
T2 construct: whole, on cells; also called mCD93
T2 sequence (looked up): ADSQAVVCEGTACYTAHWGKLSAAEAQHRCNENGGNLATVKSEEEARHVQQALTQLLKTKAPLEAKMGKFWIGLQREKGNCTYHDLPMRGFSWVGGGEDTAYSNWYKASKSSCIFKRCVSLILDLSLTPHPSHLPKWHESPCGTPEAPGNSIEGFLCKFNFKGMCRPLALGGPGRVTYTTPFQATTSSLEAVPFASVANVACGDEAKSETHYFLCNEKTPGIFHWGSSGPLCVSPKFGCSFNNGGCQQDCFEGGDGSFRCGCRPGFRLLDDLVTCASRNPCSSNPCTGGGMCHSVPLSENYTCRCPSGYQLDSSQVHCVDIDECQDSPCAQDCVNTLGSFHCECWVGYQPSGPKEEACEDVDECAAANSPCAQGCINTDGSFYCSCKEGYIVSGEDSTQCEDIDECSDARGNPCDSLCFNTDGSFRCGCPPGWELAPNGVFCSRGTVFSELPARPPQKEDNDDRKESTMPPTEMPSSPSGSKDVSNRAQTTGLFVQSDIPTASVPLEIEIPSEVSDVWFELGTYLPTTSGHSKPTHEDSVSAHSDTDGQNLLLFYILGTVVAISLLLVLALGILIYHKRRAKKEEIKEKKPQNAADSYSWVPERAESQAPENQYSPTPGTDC
In words: flow cytometry, mouse IGFBP7-Ig on mouse CD93-transduced or control HEK293T cells. (In general: In flow cytometry, cells or beads pass a laser one at a time.)

B1: IGFBP7 protein (R&D Systems), labelled with a His-Tag Labeling Kit for MST (ligand)
chain: SSSDTCGPCEPASCPPLPPLGCLLGETRDACGCCPMCARGEGEPCGGGGAGRGYCAPGMECVKSRKRRKGKAGAAAGGPGVSGVCVCKSRYPVCGSDGTTYPSGCQLRAASQRAESRGEKAITQVSKGTCEQGPSIVTPPKDIWNVTGAQVYLSCEVIGIPTPVLIWNKVKRGHYGVQRTELLPGDRDNLAIQTRGGPEKHEVTGWVLVSPLSKEDAGEYECHASNSQGQASASAKITVVDALHEIPVKKGEGAEL
modifications: RED-tris-NTA fluorescent dye bound to the His tag
notes: Bought; also called human IGFBP7; not shown: His tag implied by the His-Tag Labeling Kit
Turning to B1, the equilibrium dissociation constant (Kd) in experiment [1] is 53.1 nM.

B2: Mouse IGFBP7 (Fc-tag), Sino Biological (Fc fusion, UniProt Q61581 26-281, looked up)
chain: SSSDACGPCVPASCPALPRLGCPLGETRDACGCCPVCARGEGEPCGGGAAGRGHCAPGMECVKSRKRRKGKAGAAAGGPATLAVCVCKSRYPVCGSNGITYPSGCQLRAASLRAESRGEKAITQVSKGTCEQGPSIVTPPKDIWNVTGAKVFLSCEVIGIPTPVLIWNKVKRDHSGVQRTELLPGDRENLAIQTRGGPEKHEVTGWVLVSPLSKEDAGEYECHASNSQGQASAAAKITVVDALHEIPLKKGEGAQL
notes: also called mouse IGFBP7-Ig; not shown: Fc tag
For B2, in experiment [2], the binding result is “binds”.

Usually Kd stands for the concentration at which binding is half-saturated.
